Consider two substances from publication PMC12579241.

What all share (assay): SPR
Experiment [1] addresses IgG1 Fc fragment (prepared by IdeS digest of bevacizumab) (human).
For experiment [2], the target named is recombinant Fab fragment of trastuzumab (human) [IgG part: P01857].
The target of experiment [3] is trastuzumab (Herceptin) (human) (UniProt P01834).

For orientation: Kd means the free concentration of one partner at which half of the binding sites on the other are occupied at equilibrium, for simple one-to-one binding.

Consider “Azo-ProtG (wild-type C2 domain of streptococcal protein G with N-terminal Azo-tag and C-terminal Strep-tag II) (domain or fragment)”, for which the Kd in experiment [1] came to 499 nM; in experiment [2], 19700 nM.

With “Azo-ProtG^N478R (C2 domain of streptococcal protein G with Asn478 replaced by Arg, N-terminal Azo-ta (domain or fragment)”, the Kd in experiment [3] is 459 nM; in experiment [1], 682 nM; in experiment [2] it was more than 256000 nM.
